{
  "source": "patent US6482607",
  "target": "SP-Dis-PyCter (Dis-PyCter carrying an amino terminal ER-translocation signal from D. discoideum PsA) (UniProt P02886)",
  "sequence (P02886 other isoform, or with tags, fused parts or gaps)": "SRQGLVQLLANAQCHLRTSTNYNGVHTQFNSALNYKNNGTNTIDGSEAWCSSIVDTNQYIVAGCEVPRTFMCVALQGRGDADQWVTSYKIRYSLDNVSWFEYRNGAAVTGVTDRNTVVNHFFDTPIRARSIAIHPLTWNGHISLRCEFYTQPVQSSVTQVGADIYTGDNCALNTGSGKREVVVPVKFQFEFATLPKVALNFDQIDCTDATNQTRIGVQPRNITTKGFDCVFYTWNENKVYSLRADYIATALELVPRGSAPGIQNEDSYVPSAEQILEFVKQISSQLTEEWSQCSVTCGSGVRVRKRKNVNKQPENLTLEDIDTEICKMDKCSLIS",
  "data": [
    {"substance": "human thrombin", "values": [
      {"measurement": "size of the recombinant protein on Western blot after incubation with increasing thrombin (units/ml)", "result": "the size of the recombinant protein decreased with increasing thrombin concentrations"}
    ]}
  ]
}
